Results taken from US20230134571A1 (INTERNATIONAL AIDS VACCINE INITIATIVE, published 2023).

How the values were obtained:
Assay in all cases: cell-based or functional assay
[1] = molecular target: HIV Env, isolate 1012_11_TC21_3257 (HIV)
[2] = molecular target: HIV Env, isolate 1056_10_TA11_1826 (HIV)
HIV Env, isolate PVO.4 = HIV Env, isolate PVO.4 (HIV)
[3] = molecular target: HIV Env, isolate REJO4541.67 (HIV)
HIV Env, isolate TRO.11 = HIV Env, isolate TRO.11 (HIV)
[4] = molecular target: HIV Env, isolate Ce0393_C3 (HIV)
[5] = molecular target: HIV Env, isolate Ce0682_E4 (HIV)
[6] = molecular target: HIV Env, isolate Ce1176_A3 (HIV)
[7] = molecular target: HIV Env, isolate Du156.12 (HIV)
[8] = molecular target: HIV Env, isolate Du172.17 (HIV)
[9] = molecular target: HIV Env, isolate HIV-0013095-2.11 (HIV)
[10] = molecular target: HIV Env, isolate HIV-16845-2.22 (HIV)
[11] = molecular target: HIV Env, isolate ZM249M.PL1 (HIV)
[12] = molecular target: HIV Env, isolate ZM53M.PB12 (HIV)
[13] = molecular target: HIV Env, isolate 6952.v1.c20 (HIV)
[14] = molecular target: HIV Env, isolate 231965.c01 (HIV)
[15] = molecular target: HIV Env, isolate A07412M1.vrc12 (HIV)
[16] = molecular target: HIV Env, isolate P1981_C5_3 (HIV)

Binder	IC80 (µg/ml) with constrains [1] [µg/mL]	IC80 (µg/ml) with constrains [2] [µg/mL]	IC80 (µg/ml) with constrains (HIV Env, isolate PVO.4) [µg/mL]	IC80 (µg/ml) with constrains [3] [µg/mL]	IC80 (µg/ml) with constrains (HIV Env, isolate TRO.11) [µg/mL]	IC80 (µg/ml) with constrains [4] [µg/mL]	IC80 (µg/ml) with constrains [5] [µg/mL]	IC80 (µg/ml) with constrains [6] [µg/mL]	IC80 (µg/ml) with constrains [7] [µg/mL]	IC80 (µg/ml) with constrains [8] [µg/mL]	IC80 (µg/ml) with constrains [9] [µg/mL]	IC80 (µg/ml) with constrains [10] [µg/mL]	IC80 (µg/ml) with constrains [11] [µg/mL]	IC80 (µg/ml) with constrains [12] [µg/mL]	IC80 (µg/ml) with constrains [13] [µg/mL]	IC80 (µg/ml) with constrains [14] [µg/mL]	IC80 (µg/ml) with constrains [15] [µg/mL]	IC80 (µg/ml) with constrains [16] [µg/mL]
ePGDM13 (antibody, V domains shown) VH: QAQLVQSGPEVRKPGTSVKVSCKNPGNTLTTYDLHWVRQVPGQGLQWMGWISHEGDKKVIVERFKAKVTIDWDRSTNTAYLQLSGLTSEDTAVYYCAKGSKHRLRDYALYDEDGALNWAVDVDYLANLEFWGQGTAVTVSS VL: DIVLTQSPLSLSVTPGESASISCKSSHSLQHGDRNNYLAWYVQKPGRSPQLLLDLASERASGVPDRFSGSGSEKDFTLKISRVETEDVGTYYCMQGRESPWTFGQGTKVDIK	0.26	6.03	11.8	0.008	1.41	0.022	0.043	0.124	0.026	6	> 100	> 100	0.056	0.022	0.318	0.058	0.118	1.28
PGDM1400 (antibody, V domains shown) VH: QVHLTQSGPEVRKPGTSVKVSCKAPGNTLKTYDLHWVRSVPGQGLQWMGWISHEGDKKVIVERFKAKVTIDWDRSTNTAYLQLSGLTSGDTAVYYCAKGSKHRLRDYALYDDDGALNWAVDVDYLSNLEFWGQGTAVTVSS VL: DFVLTQSPHSLSVTPGESASISCKSSHSLIHGDRNNYLAWYVQKPGRSPQLLIYLASSRASGVPDRFSGSGSDKDFTLKISRVETEDVGTYYCMQGRESPWTFGQGTKVDIK	0.303	13.5	13.6	0.017	0.823	0.037	0.037	2.1	0.025	21.7	> 100	> 100	0.101	0.034	7.03	0.242	0.115	75.6
